The values that follow come from the supplement of paper PMC12042874.

A short description of the series: amyloid nucleation score (Sup35N fusion, yeast selection) (log enrichment); library NNK1; higher = more nucleation; inactive = no reads after selection. Summed up: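 Peptides of 20 random codons fused to Sup35N were expressed in psi-negative yeast, induced 24 hours with 100 μM copper sulfate, then grown 7 days at 30°C on medium lacking adenine and uracil. Input and output plasmid inserts were Illumina-sequenced. Nucleation score is the DiMSum log enrichment of output over input reads, centred on the mode score of non-aggregating sequences, excluding sequences with under 100 input reads. Random libraries had three technical output replicates.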

± gives the uncertainty stated by the source.

ACHQGGMTSPNTRSTLFRVW displayed an amyloid nucleation score of 0.8 ± 0.51.
As for QMDVRDFYSRVSGGGGYQMH, the figure is -0.074 ± 0.61; as for TQPMSF, “inactive”; as for KVYTWVPPTMNYRMNLFIVR, 0.036 ± 0.19.
The substance ISGYQS came in with an amyloid nucleation score of 0.088 ± 0.64.
VGNWYPGIG: the amyloid nucleation score result was “inactive”.
HSGSDSAITVVSLGIRE: the amyloid nucleation score is -0.19 ± 0.91.
PRFKTMVVTHFLSFNFYGWN: the amyloid nucleation score is -0.505 ± 0.39.
In the case of FRCGKGVVMSYELVNSIVGS, the amyloid nucleation score was determined as 0.407 ± 0.76.
SSDMGFFARYLSLNH showed an amyloid nucleation score of 0.512 ± 0.55.
The value for MSLYYPSFDQPITKRVRLFF was -0.82 ± 1.4.
In turn, SEYMLRSNIVFPRWIS registered an amyloid nucleation score of 0.35 ± 0.71.
ELTLGLCSYSVRRSCGEGSW showed an amyloid nucleation score of 6.62 ± 0.082.
Regarding SMCNEVDGTDGYAAIGLYMY, the amyloid nucleation score was -1.65 ± 2.4.
On to FRGTVFSW, for which the amyloid nucleation score was -0.26 ± 0.69.
SGNCQSRFVVNGNHKC returned an amyloid nucleation score of 0.371 ± 0.5.
With YFRVLGN, the amyloid nucleation score was -0.011 ± 0.3.
As for SFISKLLNYVVAFCVVCDEI, the figure is 0.127 ± 0.5; as for AEGCRIPGRQSYRYGDICPR, -0.373 ± 0.39; as for AALENAGWLMAMANKRPSKR, -0.614 ± 0.64.
VQETYGYLYRNNIDRGGHIN came in with an amyloid nucleation score of 2.07 ± 0.56.
The value for TEYVTLLGLSLGFVLASLGA was 0.283 ± 0.43; that for LSNKLEYPMSPLISAVLFSA was “inactive”.
The substance ISKNLNRMHILVLYMVGMRF displayed an amyloid nucleation score of 0.259 ± 0.88.
The value for DRSDDGHNESLWAVLMRHKV was 0.315 ± 0.52; that for TWNAFRRLWVTSDGYTRVLT was 1.23 ± 0.41; that for WNNGVLLNRV was 0.792 ± 0.41.
As for VYQKWLG, the figure is -0.778 ± 0.46; as for YLWLYVLSRTWVFNKHPSPI, -0.543 ± 0.41; as for FVFHVGDDARGSCHKCRLWN, 0.665 ± 0.62.
Take TCVSYTP: the amyloid nucleation score turned out to be 1.75 ± 0.56.
The substance FYRCRRSRNGGISDVFRIIP came in with an amyloid nucleation score of 0.242 ± 0.3.
As for YGRSP, the figure is 0.597 ± 0.46.
For QWSDS, the amyloid nucleation score was -0.267 ± 0.41.
As to VEYVQYFWSSGGVYGSDTGW, the amyloid nucleation score was found to be 0.024 ± 0.76.
TYILVFSVIYPSLKYECFCQ yielded an amyloid nucleation score of 1.6 ± 0.61.
For the substance NSSLLDISLYDNLVQGSDWP, the amyloid nucleation score was -0.249 ± 0.57.
As for TAGLIILINSYASGRLTGDP, the figure is 6.639 ± 0.049.
Consider WLETRP, for which the amyloid nucleation score was -0.226 ± 0.33.
As to DVFADGKVIQAYLM, the amyloid nucleation score was -0.117 ± 0.39.
In turn, DMLWKRWTIYYAFYFKAWGY had an amyloid nucleation score of 1.08 ± 0.39.
As for VSSGRRIGCVSPGSGEAREW, the figure is 0.376 ± 0.61; as for LKAGFM, -0.102 ± 0.28.
In the case of RRFPRMWGLCMSLFRSHCGS, the amyloid nucleation score came to 1.92 ± 0.27.
LDHNGEGFFFKGSLFVNCLA: the amyloid nucleation score was -0.912 ± 1.6.
Substance RFASISYVGTNSGLDVQSNW showed an amyloid nucleation score of 0.171 ± 1.2.
Consider CPDLGYACWYIINRIPSTWC, for which the amyloid nucleation score is -1.3 ± 1.2.
Take NCYSF: the amyloid nucleation score is 0.055 ± 0.29.
The value for PLTNRNIKIHYDLLSDDKMV was 0.602 ± 0.26.
The value for YIQLVI was -0.279 ± 0.32.
Take WLSRSSFMKLCSTKFPRWRL: the amyloid nucleation score was -0.494 ± 1.1.
On to HKLDQLKASRLPSLVNWRVG, for which the amyloid nucleation score came to 1.12 ± 0.7.
As for MLGFYKSWCFNFSNMNVH, the figure is 0.979 ± 0.57; as for CYRIDGSYYQLSCSYVYVRV, -0.837 ± 1.1; as for FFIETVYATKNYKHW, 2.76 ± 0.11.
Take LTHVIGIPRQPCEPLVHLYG: the amyloid nucleation score was -0.745 ± 2.4.
As for YKHWLYKLSCLEARSEYCGF, the figure is 0.444 ± 1.1; as for CLRGLNAPLYNRCFAGILLG, -0.6 ± 0.36.
KRHVSGKVQMGWGVRRRPV came in with an amyloid nucleation score of 0.178 ± 0.72.
For LVILVTIVDFMEDLSW, the amyloid nucleation score was 0.74 ± 0.54.
Consider MTVSRNFDYAKLCEWRRVNR, for which the amyloid nucleation score was -0.371 ± 0.37.
Regarding ELLQD, the amyloid nucleation score came out at 0.038 ± 0.59.
NDFLNSFLCPYYIIPDTGRI: the amyloid nucleation score is -1.04 ± 0.44.
With SLSKLAICMWSYIFNMSYFC, the amyloid nucleation score is -0.139 ± 0.81.
The value for RVPCCGSYKGVFYEFTFSRG was 0.957 ± 0.49; that for KVIRAGHDVVPRTYRRRSRR was 1.29 ± 0.58; that for VFCVSRTINGYN was -0.374 ± 0.48.
Take TRFLGYWADLSICMPSYGCR: the amyloid nucleation score is -0.209 ± 1.
With ATLMYWASSWSCWFTKGTAV, the amyloid nucleation score is -0.413 ± 0.37.
The substance VYIHTWIRVKIWSSS yielded an amyloid nucleation score of 1.96 ± 0.65.
In the case of GLCMEYTVWWVWSWITLRVD, the amyloid nucleation score was -0.294 ± 0.26.
As to SMSHGWGLLDFLWADCWWPK, the amyloid nucleation score was -0.031 ± 1.
As to GRFLHINS, the amyloid nucleation score entry was “inactive”.
Take IILFSSVGCSMCMTSGLEGF: the amyloid nucleation score was determined as 6.964 ± 0.066.
Consider PWYKSLSRPSGGKTVLLRNM, for which the amyloid nucleation score was -0.113 ± 0.43.
Consider VDTLLARIIRLRHQFSNTAV, for which the amyloid nucleation score was found to be 0.16 ± 0.29.
SSNFLRILIGTFVRYRV displayed an amyloid nucleation score of 0.073 ± 0.37.
The substance ERKRTFY showed an amyloid nucleation score of 0.536 ± 0.41.
SFDNCLFVVVAAAIVNQPVC gave an amyloid nucleation score of 5.83 ± 0.09.
In the case of LYCWVFSLSSMESNWLGQHT, the amyloid nucleation score is -0.012 ± 0.29.
The substance VNIRRRTLFS had an amyloid nucleation score of 0.023 ± 0.3.
In the case of DHASGLVLLCLVWLGLMSLK, the amyloid nucleation score was determined as 0.501 ± 0.43.
For NWVRFIHFYYNGTRLWAEFV, the amyloid nucleation score was -0.915 ± 0.74.
The value for KAVRMSNFD was 0.223 ± 0.71; that for LLTSMSSGLVDYR was “inactive”; that for CFVHLLGIIYLSLDRNYCRE was 0.272 ± 0.57.
Substance LKVTCFRTYANFGRYDILVF returned an amyloid nucleation score of 0.096 ± 0.53.
The substance RALFSIHNTAEGLSERWAAL had an amyloid nucleation score of 0.58 ± 1.2.
As for LNYTVQSDTWHLNWQP, the amyloid nucleation score turned out to be 0.875 ± 0.93.
The value for CVLCDGYFKSERLLNGWVM was -0.641 ± 0.52; that for GNLVTCNSKYTRMEG was 0.166 ± 0.49; that for NKNSGSRHHHVTYQLTPGER was “inactive”.
With NPGNTN, the amyloid nucleation score amounted to 0.17 ± 0.55.
The value for FCKCNQVFISCLCGSTKHTG was 3.59 ± 0.1.
The substance FSMVAESRIEGILRFS came in with an amyloid nucleation score of 0.409 ± 0.22.
As for YMCHKRAFV, the figure is 3.32 ± 0.12; as for RWLPPLRVRIRDHTHIITDK, 2.22 ± 0.17; as for GACLWGT, 0.338 ± 0.29.
DSNFVTGWMTSIMLRVGVLR returned an amyloid nucleation score of 0.514 ± 1.2.
For HAFSSCDYSHYVFGMRPFDL, the amyloid nucleation score is 1.51 ± 0.15.
With CVVESMSIIMRRCSLS, the amyloid nucleation score is -0.861 ± 0.42.
Consider VFGDT, for which the amyloid nucleation score turned out to be 0.149 ± 0.97.
TWDFSFDQGIKY: the amyloid nucleation score was -0.125 ± 0.32.
Regarding RWNRSSDTCLCLHSMMLT, the amyloid nucleation score is -0.518 ± 1.1.
